# Assay results reported in PMC10136559, “An Aptamer That Rapidly Internalizes into Cancer Cells Utilizes the Transferrin Receptor Pathway”.
# Tests used:
# [1] = target: T1, human transferrin receptor 1 (hTfR) (Homo sapiens, UniProt P02786 89-760); assay: bead-based flow cytometry; apparent Kd; SB1T: 40 mM HEPES, 125 mM NaCl, 5 mM KCl, 1 mM MgCl2, 1 mM CaCl2, 0.05% Tween20, 1 mg/mL salmon sperm DNA; 37 °C, 30 min; pH not stated; conditions: protein: recombinant, tags: His, chain copies: 2, label: 5' DyLight 650 via thiol C6
# T1 sequence (P02786 89-760): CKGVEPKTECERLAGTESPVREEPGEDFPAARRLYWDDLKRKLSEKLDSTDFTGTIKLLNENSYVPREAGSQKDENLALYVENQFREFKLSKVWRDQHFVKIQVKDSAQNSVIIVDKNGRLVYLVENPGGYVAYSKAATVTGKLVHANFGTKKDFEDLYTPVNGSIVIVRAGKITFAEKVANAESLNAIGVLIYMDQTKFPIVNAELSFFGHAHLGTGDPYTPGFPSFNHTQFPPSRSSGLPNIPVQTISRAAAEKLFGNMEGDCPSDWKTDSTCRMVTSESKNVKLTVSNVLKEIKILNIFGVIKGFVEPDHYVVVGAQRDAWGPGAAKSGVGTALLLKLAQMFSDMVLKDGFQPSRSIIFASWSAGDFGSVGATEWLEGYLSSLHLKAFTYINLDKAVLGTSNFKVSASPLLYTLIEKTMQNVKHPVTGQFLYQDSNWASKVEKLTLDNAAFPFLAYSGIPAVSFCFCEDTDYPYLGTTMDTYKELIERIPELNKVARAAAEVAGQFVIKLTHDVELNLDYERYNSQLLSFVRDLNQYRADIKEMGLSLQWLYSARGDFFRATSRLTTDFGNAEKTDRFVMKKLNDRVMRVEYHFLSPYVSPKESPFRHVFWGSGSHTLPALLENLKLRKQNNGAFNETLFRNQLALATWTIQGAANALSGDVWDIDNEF
# [2] = target: mouse transferrin receptor (mTfR) (Mus musculus, UniProt Q62351 89-763); assay: bead-based flow cytometry; 200 nM aptamer; SB1T: 40 mM HEPES, 125 mM NaCl, 5 mM KCl, 1 mM MgCl2, 1 mM CaCl2, 0.05% Tween20, 1 mg/mL salmon sperm DNA; 37 °C, 30 min; pH not stated; conditions: protein: recombinant, chain copies: 2, label: 5' DyLight 650 via thiol C6
# Sequence of mouse transferrin receptor (mTfR) (Q62351 89-763): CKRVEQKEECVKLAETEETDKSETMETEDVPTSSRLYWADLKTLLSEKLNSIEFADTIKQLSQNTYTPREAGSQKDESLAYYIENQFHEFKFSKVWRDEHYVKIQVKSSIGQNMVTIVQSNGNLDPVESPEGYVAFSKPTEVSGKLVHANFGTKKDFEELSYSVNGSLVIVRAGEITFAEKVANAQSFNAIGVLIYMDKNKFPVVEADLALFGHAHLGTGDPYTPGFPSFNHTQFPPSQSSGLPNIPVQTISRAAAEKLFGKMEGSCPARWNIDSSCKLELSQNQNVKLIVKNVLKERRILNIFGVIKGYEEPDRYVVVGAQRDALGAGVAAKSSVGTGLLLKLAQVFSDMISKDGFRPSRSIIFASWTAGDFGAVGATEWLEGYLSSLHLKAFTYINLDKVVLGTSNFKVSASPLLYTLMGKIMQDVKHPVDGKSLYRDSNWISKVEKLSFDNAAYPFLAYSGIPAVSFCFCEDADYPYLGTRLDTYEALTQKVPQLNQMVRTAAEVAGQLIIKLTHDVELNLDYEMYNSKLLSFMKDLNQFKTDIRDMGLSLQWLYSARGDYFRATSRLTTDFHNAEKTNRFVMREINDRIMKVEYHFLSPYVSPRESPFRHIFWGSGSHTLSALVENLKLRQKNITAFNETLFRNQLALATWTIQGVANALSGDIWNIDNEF
# [3] = target: T1, human transferrin receptor 1 (hTfR); assay: bead-based flow cytometry; apparent Kd; 0-100 nM aptamer range; SB1T: 40 mM HEPES, 125 mM NaCl, 5 mM KCl, 1 mM MgCl2, 1 mM CaCl2, 0.05% Tween20, 1 mg/mL salmon sperm DNA; 37 °C, 30 min; pH not stated; conditions: protein: recombinant; tags: His; chain copies: 2; label: 5' DyLight 650 via thiol C6
# [4] = hairpin with bulge and loop (predicted)
binder,measurement,setting,value
"GGCUUUCGGGCUUUCGGCAACAUCAGCCCCUCAGCC (XNA, 2'-fluoro pyrimidines; 3' inverted dT) [E3 (DL650-E3)]",Kd,[1]; [4],4.23 nM
same,binding result,[2]; [4],no binding
"GGGUUCUACGAUAAACGGUUAAUGACCAGCUUAUGGCUGGCAGUUCCC (XNA, 2'-fluoro pyrimidines; 3' inverted dT) [Waz (DL650-Waz)]",Kd,[3],22.1 nM
same,binding result,[2],no binding
"GGGGGAUCAAUCCAAGGGACCCGGAAACGCUCCCUUACACCCC (XNA, 2'-fluoro pyrimidines; 3' inverted dT) [C2.min (DL650-C2.min)]",Kd,[1],7.44 nM
"GGCGUAGUGAUUAUGAAUCGUGUGCUAAUACACGCC (XNA, 2'-fluoro pyrimidines; 3' inverted dT) [C36 (DL650-C36)]",binding result,[2],no binding
